Test: soluble on expression in E. coli; label from the status in PepcDB or PDB records

Sequence	soluble on expression in E. coli
MTVYNRTKQKTEDLVTEGAQAADTPRLAAKSADIVITMLADDDSVSTVTFGEDGLLEGLAENGIHISMSTISVEFSEKLAAAHAEKGQFFLAAPVLGRPDAAAKAALRIITAGPAEAKQAAKPLLDSLSQQIFDVGEESKTANAAKISINFLLVSMLEALSESFLMMEKYGLEQKQFLEIASALFGSPVYQNYGTIMAEQKFEPAGFKMSLGLKDTNLALAAAKRVSANLPLAELAKSHFESGIEKGFGDLDWAALIKCIK	not soluble
MVQKLSRPSPDFLKGLKSILQGDHPSLKQLEQDINIFYMNQRQSQSMLEERKLYVALVRKYLKSEGVTKQLASQGIKLRGLSVFGSFPTHCASKDSDLDLCVCATATGNKKQLPVIILQAIFRDMMYSKEGQNIFGENVVSGISFVQTAKVPIIRFKINDVPVDLSATFDDNPRTSLAAKYINAYCQLDDRFKILVMFLKKWMKSEGRAEDHLRIYPNSYSIILLLIHVLQWYDILPNLHQTHSDLFHRGNFKLSDLAELRHEFKFPLDENTISMHRKRPSNDLTVVQLLYLFACQYSNHVVLLNYRFNMRNGEIEALSQKDQDYQITILDAYDVRNPGRSARNALDLVKTLEALKSLLVQPHEGMFKTVMEITRNRTYERVVPPPQVLYQDYDMQFGADPYNMPLVGSVEYQQWLEQVAMHHQIQMMQGQMMQQQIVFTAPEMYYYSQQQQQPHPIFGIQQSSQFF	not soluble
MLKRTPLFPVYARYGAKTIEFGGWEMPVQFSSIKEEHEAVRTRAGLFDVSHMGEIVVRGRGSLAFLQKLMTNDVAKLRPGRAQYTLMCYEDGGTVDDLLIYQKGENDYLLVVNAANTEKDFAWLSGHVEGDVELQDVSSETAQLALQGPAAERVLQRLTDFDLAALRPFSFADGVEVSGVKALVSRTGYTGEDGFELYCKAEDAAALWEAILAAGARDGVLPCGLGARDTLRFEACLPLYGQELSDSISPVEAGLGFAVKTEKEPPFIGQAVLKRQKEEGPPRRLVGIEMIDRGIPRHGYLVFADGEEVGFVTTGTQSPTLKKNIGLALVKADVAAIGREVEVDIRGKRLKANIVPIPFYRRAK	not soluble
MGSDKIHHHHHHMYDVLIIGAGPAGSSLARLIGDKYKVLLIDKRDLANENPHNLAGKCCGGLLAPDAQKMIAKLGLGIPKDILVNPQLFAVRTIDLTNNLERLYQRFYLNMDREKFDRWLVSILPKKVDKKFNAVFKDFVEIPGGYEVKYIHNGQEISAKTRVIIGADGAFSKLRRFLNQDINGPEKYIAIQEWYECPHHVPYFTAIFDEEISDFYSWIIPKENYLLLGSALKPKEKAREKYELLKTKLTQRGFNFDNKIRTEGAYLYRPKKVSQFYAGRDSIALVGEAAGGISPSSAEGISYALKSSAYLAQSLEEGIDGFLDRYKLKVKGIKLNLLLKNLKSPAMYNPLLRQLAMKSGLQSIDRTE	not soluble
MLSGREMSMSHINYNHLYYFWHVYKEGSVVGAAEALYLTPQTITGQIRALEERLQGKLFKRKGRGLEPSELGELVYRYADKMFTLSQEMLDIVNYRKESNLLFDVGVADALSKRLVSSVLDAAVVEDEQIHLRCFESTHEMLLEQLSQHKLDMIISDCPIDSTQQEGLFSMKIGECGVSFWCTNPLPEKPFPACLEERRLLIPGRRSMLGRKLLNWFNSQGLNVEILGEFDDAALMKAFGATHNAIFVAPSLYANDFYNDDSVVEIGRVENVMEEYHAIFAERMIQHPAVQRICNTDYSALFTPASK	not soluble
MGSDKIHHHHHHMRLNLRQIEVFRAIMLTGSISGAAKLLHVSQPAVSRLISYAEQRLGLALFERIKGRLYPTPEAQRLFVEVNAVYQGVQRVNEIAEDLIENRMGHLRIACSPNLGQSLLPRAIAAFYERLPDVRIILHTMIPNVLLQAVLTQQVELGIAFLQDTHPNVESQLLYENRMVAAVPASHPFARRKTLAVRDLANQPLIGYGSDIPLGQLVRRLFSDESLVPQVKVEVQQAHVACALAQAGTGIALIDELTVAGPVWPQIVVKPIVPTLAAPVSVLHPVPTPLSRLAHAFIDTLHSLAAHA	not soluble
MRSVLQSEVSECGLASLAMVANAHGKHLTLSQLRQRFPSSLKGAKLTHLVHIAQQLGFSTRPLRLDMEDLGKLKLPCILHWDLNHFVVLAKVGTTKVTIYDPAIGKRKLSLNEVSKYFTGIALELTTTTE	not soluble
NQVLSGVSFQLMPGEVHALMGENGAGKSTLMNILTGLHKADKGQISINGNETYFSNPKEAEQHGIAFIHQELNIWPEMTVLENLFIGKEISSKLGVLQTRKMKALAKEQFDKLSVSLSLDQEAGECSVGQQQMIEIAKALMTNAEVIIMDEPTAALTEREISKLFEVITALKKNGVSIVYISHRMEEIFAICDRITIMRDGKTVDTTNISETDFDEVVKKMVGRELTERYPKRTPSLGDKVFEVKNASVKGSFEDVSFYVRSGEIVGVSGLMGAGRTEMMRALFGVDRLDTGEIWIAGKKTAIKNPQEAVKKGLGFITENRKDEGLLLDTSIRENIALPNLSSFSPKGLIDHKREAEFVDLLIKRLTIKTASPETHARHLSGGNQQKVVIAKWIGIGPKVLILDEPTRGVDVGAKREIYTLMNELTERGVAIIMVSSELPEILGMSDRIIVVHEGRISGEIHAREATQERIMTLATGGR	not soluble
MRCIQLYVFYLISQLFTTGSAQKTFHYGVTGGEQFGRHEPSTRLSRFQSTPVSLNPLEDTLRVQQILKKLEDPGGLEIRRRSTSRRLHGVLTEPFGTPLVISGNSSEKKKKKPLKIKKRNGRRNPKSPEVNEYELQLAKQIEEDQLKFVEDEKNPMKYVVENGLLFRQSRYSPLARVEIPPVSGMSEISGISQRTSHSVGQTMQNPPRKRRRKQSYKLKNSKSSSESMFRTNVFRGNINRQIPAIPLPSPFSVAYGKPSFAIAREEDGKCYTNRFGYRCCDEALEALILKSYEKLRRKSNDLEDNLSKIASTLRRDSRQVFAKNLEAIVSTSNFGTSIPSDFSCKVELGPNRFVAQVFVPELGLDAKTTTRRHRIPYHELSREDLSDAADLVVSRNGIIVSKLL	not soluble
MGSDKIHHHHHHMKKVLVAGATGYLGRYAVQEFKNRGYWVRALVRNPEKFKKPGPFFAPEIDTLVDDVVFGDATKPETIAGLCDGIDVVFSSLGMIKPDFEHDNFDVDYQGNMNILAEALKAGVKKFVYVSVFDAHRMMNIPNVQAHEKFVRELQAAKIESTIIRPNGFFSEIGQFVARARRGFMLWIGDGYNRQNPIHGADLAKVCADAVDSSEKEIEVGGPEVFTYREMVDLAIEIAGTQPVQVSLPFWLADGIVGVLGLFNRDVHDVALFATTLSKMDFVSPKYGTHRLRDFFNECKLLPL	not soluble
MEQEQRGMAALLSKFRIDYSDVYVIADIGKKPRQETMNTWQSVIDPFIAQDGSCPIGMTTKSELSAQRDKTYRQLRAGELLNEHSINADLIVMTLPVPRKGMVSSSLYMSWLEVMTRNLPPVLLVRGNQQSVNTSSSSTASSPHHLIIPALAINPHLKVFPSHISLKCFFFFRFLLKAYAAAVHPPSRFLCYMKKVTDSIFVSLMNNSRLYCLL	not soluble
MKEIDWANLSFGYMKTDYNVRINFRNGAWGELEVSSDEHLNLHMAATCLHYGQEAFEGLKAFRGKDGKVRIFRLEENAARLQSTCQGILMAELPTERFKEAILKVVKLNERFIPPYETGASLYIRPLLIGTSAQVGVHPAEEYMFVVFVTPVGPYFKGGFSTNPYVIIREFDRAAPHGTGIYKVGGNYAASLRANKKAHDLGYSCEFYLDAKEKKYIDECGAANFFGIKDNTYITPKSSSILPSITNKSLMQLAEDMGIKVERRPIPEEELETFEEAGACGTAAVISPIQRIDDLENGKSYVISKDGKPGPICTKLYNKLRGIQYGDEPDTHGWVTIVE	not soluble
MAHHHHHHMVSAPQIRSIPCGSGDFSVMKRSLIARWQSGVHTPHGVVYRGAKMKNWPEQRIPENFKFTEEQRFRTKAIPRDVGTIPRNFVLGVLYRHQPCEVGGLWEHCTNDPEIVLDSKRHLREVLKQAREEGFVTFERDAISNEWLCFLTRERYEEVQRIVTAKSEAVDAHSGLRGAAATETSTYAEKFREMNVEAKEAHARRLEEEVANTTRYLRRFQQREIDYLPYTDLNGKVNFMWWYETRDVQQRADEVLTDSSSSKALAGEEEHKAGSQLEATTASTS	soluble
MGHHHHHHSHVFDRPDLGDQAILVSLDFGDADYQESVAECAELVRGSKVEILGMVQGKRQRPDAALFAGKGKVEEIASMVRATGANVVIFNHALSPGQERNLERALQCRVIDRNSLILDIFAQRARSHEGKLQVELAQLSHLSTRLVRGWTHLERQKGGVGLRGPGETQLETDRRLLGIRVKALKDRLAQVQKQRNTQRRSRNRAGVSSVSIVGYTNAGKSTLFNALTKANIYAADQLFATLDTTSRKLFLNHDCSVVLSDTVGFIRDLPHTLVAAFRATLEETVQANLLLHVVDCANETRDAQIDEVNKVLAEIDADGIPQLIVWNKGDLRELPPEIERDEDGVAVAVRVSALKGEGLELLREAIAERVQPFANNHKEPYEHVAE	soluble
GPLGSNIEQYIHDLDSNSFELDLQFSEDEKRLLLEKQAGGNPWHQFVENNLILKMGPVDKRKGLFARRRQLLLTEGPHLYYVDPVNKVLKGEIPWSQELRPEAKNFKTFFVHTPNRTYYLMDPSGNAHKWCRKIQEVWRQRYQSHPDAAVQ	soluble
MGRIISSYIFPHPPLIVPEIGKGDEKGAIKTIEACEKAAEQIRKEKPSTIILTTSHAPLFEDYIFINDHKTLKGNFSRFGARKVELGFENNLKMVESIIEFAKKEGFDAGGISEGIGRRYGISGELDHGALVPLYYISRVYSDFKLVHVAMSTLTLEEHYKFGMCIGEAVRNSDEDVVFVASGDLAHRLTSDGPYGYNKHAPEFDELLVKSIEKDDIDRILDIDDKLRDEAAECGLRSFVIMLGALDGYSVVPEVYSYEGPFGVGYMVARIGVGAMDSSRRIIENRRNKRKKSTDPYVSLAKRALEAYVTEGRVLDDYSGLPEEMLNSRAGTFVSIKKKGELRGCIGTIGPTRKNIASEIVHNAISAGTSDPRFYPVKPYELDELEYSVDVLMEPEEINSMDELDVVKYGVIVRAGRRTGLLLPNLENVNTVEQQVSIALQKAGISPNEKYTMERFEVIRHK	not soluble
MINYPNLPNSALEITEQPEVKEITNELLKQLQNALNSNSLFSEQVELSLKGIVRILEVLLSLDFFKNANEIDSSLRNSIEWLNNAGESLKTKMKEYEGFFSDFNTSMRTNEQEVSATLNANTENIKSEIKKLENQLIETTTRLLTSYQIFLNNARDSANNQITANKTESLEALNQAKTSANNEITANQTQALTNINEAKENANNQITENKTQAITNINEAKNQSLSKH	not soluble
MAAPVAPSEPQASRAPQPPVCLLVLGMAGSGKTTFVQRLTGHLHNKGCPPYVINLDPAVHEVPFPANIDIRDTVKYKEVMKQYGLGPNGGIVTSLNLFATRFDQVMKFIEKAQNTFRYVLIDTPGQIEVFTWSASGTIITEALASSFPTVVIYVMDTSRSTNPVTFMSNMLYACSILYKTKLPFIVVMNKTDIIDHSFAVEWMQDFEAFQDALNQETTYVSNLTRSMSLVLDEFYSSLRVVGVSAVVGTGFDELCTQVTSAAEEYEREYRPEYERLKKSLANAQSNQQKEQLERLRKDMGSVALDPEAGKGNASPVLDPSDLILTRGTLDEEDEEADSDTDDIDHRVTEESREEPAFQNFMEESMAHWKRNK	not soluble
TQDMELNVNVNVTFQQNKLLSLSGMYGGENISAPEYKSLASLDGAGFHGGYNHIVYQMVGQPLGVFYLPHCKGLIADGNGGYTYDIADLNGGGVSLEDGEDRYVAGQAVPKTLLGSNISFRYKRFDLSVQVNGAFGHKIYNGTSLTYMNMNIFPDYNVMKKAPGRNIKDQTATDYWLEKGDYINFDYVTVGWNVPVAKWKKYVQSFRLAFTVNNLATITGYSGLSPMINSSTVNSTLGVDDKRAYPLARTYTLGLSINF	not soluble

— the DeepSol protein solubility set
